Experimental data published in patent publication US20030152571A1.

Tests used:
[1] = target: rabbit αvβ3 receptor on rabbit smooth muscle cells (rabbit); experiment: cell-based or functional assay
[2] = target: human vitronectin receptor αvβ3 purified from human placenta (human) (UniProt P06756); experiment: BIAcore; αvβ3 in a hybrid bilayer membrane on the sensor, mAb at 100, 25, 6 nM in triplicate
[3] = target: human vitronectin receptor αvβ3 purified from human placenta (human) (UniProt P06756); experiment: ORIGEN competition: αvβ3-biotin (1 ug/ml) preincubated with unlabeled antibody, then 1 ug/ml Tag-LM609
[4] = target: human vitronectin receptor αvβ3 purified from human placenta (human) (UniProt P06756); experiment: competition: 1 ug/ml αvβ3 preincubated with unlabeled antibody, then binding of 1 ug/ml D12
[5] = target: human vitronectin receptor αvβ3 purified from human placenta (human) (UniProt P06756); experiment: BIAcore; immobilized αvβ3, mAb in solution
[6] = target: human vitronectin receptor αvβ3 purified from human placenta (human) (UniProt P06756); experiment: BIAcore, αvβ3 immobilized in a hybrid bilayer membrane on the sensor surface, mAb in solution

Inhib (%) R-SMC (50 mg/ml) [1]: 43% | Kd [2]: 0.46 nM | % Inhibition at 0.1 ug/ml [3]: 3% | % Inhibition at 1 ug/ml [3]: 41% | % Inhibition at 10 ug/ml [3]: 79% | % Inhibition at 0.1 ug/ml [4]: 3% | % Inhibition at 1 ug/ml [4]: 29% | % Inhibition at 10 ug/ml [4]: 68% | Kd [5]: 3.8 nM | koff [6]: 0.00051 s⁻¹ | kon [6]: 1.1e+06 M⁻¹ s⁻¹
Substance: murine monoclonal antibody LM609
